Source: PMC7855945 (Cellular microbiology, 2020)

Target: the molecule itself
Assay: SEC

B1: recombinant A. fumigatus Hsp90 (rAfHsp90), full length, 6×His-tagged (natural protein)
chain: not shown
- stoichiometry N: 2
